In the DeepSol protein solubility set:

Test: soluble on expression in E. coli; label from the status in PepcDB or PDB records

Sequence	soluble on expression in E. coli
MKAKLVSLLAQANIKISDQQIQQLINLVNLLNKWNKAYNLTSVRDPQEMLVKHILDSLVVSPYLQGDRFIDVGTGPGLPGLPLAIINPSKQFVLLDSLGKRISFIRNAIRELRLTNVTPVLSRVEEYQPEDKFDGVLSRAFASLKDMTDWCHHLPKENGYFYALKGIYQEDEINELNKKYTIQKVIELSVPELIGERHLIVLRLEHHHHHH	not soluble
MSLSSARFDSSDRSAWYMGPVSRQEAQTRLQGQRHGMFLVRDSSTCPGDYVLSVSENSRVSHYIINSLPNRRFKIGDQEFDHLPALLEFYKIHYLDTTTLIEPAPRYPSPPMGSVSAPNLPTAEDNLEYVRTLYDFPGNDAEDLPFKKGEILVIIEKPEEQWWSARNKDGRVGMIPVPYVEKLVRSSPHGKHGNRNSNSYGIPEPAHAYAQPQTTTPLPAVSGSPGAAITPLPSTQNGPVFAKAIQKRVPCAYDKTALALEVGDIVKVTRMNINGQWEGEVNGRKGLFPFTHVKIFDPQNPDENEGHHHHHH	soluble
MKKRAACLCFRSEREDEVLLVSSSRYPDRWIVPGGGMEPEEEPGGAAVREVYEEAGVKGKLGRLLGVFEQNQDPEHRTYVYVLTVTELLEDWEDSVSIGRKREWFKVEDAIKVLQCHKPVHAEYLEKLKAHHHHHH	soluble
MSLIIKKLKQSHSVKILCEVFNVHRSSYHYWLKRPALINAETIKLRSLISEAHAASNGSAGARTIADIVTNQGVKLSRYRATKLMRTLGLVSCQEPKHRYRKASQEHIDVPNHLSRQFAVTAPNEVWAGDVTYIWTGNRWMYLAVVIDLFARKVIGWSMSLSPDSRLTGKALSMAYESRGKPKGVMFHSDQGSHYTSRKYRQLLWRFQIKQSLSRRGNCWDNAPIERFFRSLKTEWVPTVGYRSFAEAQQEITRYIIGYYCQLRPHQYNGGLTPNESERLYWENSKTVANFSEGHHHHHH	not soluble
MGSDKIHHHHHHMILEALQYAATRAVTPKEFRPHVRYSVNLWARANRCAKAWAEHENNSRQFVLQSAKKLKQRRTAVVLGSGLLRDVPHDALVAMFDTVVMVDLVHLASVQAKLRLNAKKNVRIANRDLSGFDDLLAGRPAEPLDFLRRVPYLDFVVSANLLSQIGTGAQHRLEREKIANVPGDLLPKLIQTHLDALAGLPCKVCLVTDTAFDVIGKDGSVQQHEDLLHGIEIASPAAAWDWPLAPFGEESRDYRIVHHVIAREMT	not soluble
MIDKSAFIHPTAIVEDGAVIGANAHIGPFCIVGPQVEIGEGTVLKSHVVVNGQTKIGRDNEIYQFASIGEVNQDLKYAGEPTRVEIGDRNRIRESVTIHRGTVQGGGLTKVGSDNLLMINAHVAHDCTVGNRCILANNATLAGHVSVDDFAIIGGMTAVHQFCIIGAHVMVGGCSGVAQDVPPYVIAQGNHATPFGVNIEGLKRRGFSREGLVAIRNAYKLLYRSGKTLDEAKLEIAELAEKHPEVKAFTEFFERSTRGPIR	not soluble
IDEKPSDLLLDRIESRFNFDVPRGEGHNTVQAIKAMEEGQAKVFIGLGGNFAQATPDTERTHNAMRNCNLTVHISTKLNRSHLVTGKDALILPCLGRTEIDQQATGPQGVTVEDTFSMVHISFGQLKPRSEHLRSEPAIIAGIANATLGAKPIDWLWAIEDYDRIRDLIADTIPGFTDFNHKLKHPGGFHLVNPAAERRWNTPSGKAQFSSSELPKQLISEAILEKGQKPDLILQTMRSHDQYNTTLYGLNDRYRGVFGMREVLFINEADIRKLGFEPGDKVDMVSLWEDGVERRVSGFTLVAYDVPAGQAAAYYPETNPLVPLDSYGDRTFTPTSKFIAIKLEKSTSNKIALVETE	not soluble
MAAKFHLKKAKDGQFHFNLHAANGEIILTSELYKAKDSALGGIESVRKNSQRDGAFEVKPANNGKFHFVLKATNGQVVGQSQLYASQANAEAGVQSVKRATPEAGLSDES	not soluble
MELKLIPIEKPENLNVILGQAHFIKTVEDLHEALVTAVPGIRFGLAFSEASGKRLVRRSGTDEALVELAVKNLLNLACGHVFLIVLGEGFYPINVLHAVKACPEVVRIYAATANPLKVVVAEEGEQRAILGVMDGFTPLGVEDEAEVAWRKDLLRRLGYKL	soluble
MSLVERALQVGSPAPDFALPNAVGREVRLSSVTARGPSVITFYRGAWCPYCSLQLRAYQKILPQLKLLGGELLAISPQTPDKTQATLLKNFLEYEVLSDVGNRVAKRFGLVYPVGAEVRRIYLGFGVDLAEYNGDDSWELPLPGTFVIDRTMTVRLSFVDADYTRRLEPAAILDTLRAMRDVGGIPEGHHHHHH	not soluble
MSLSTEPLASRMRPKNIDEIISQQHLVGPKGIIRRMVDTKRLSSMIFYGPPGIGKTSIAKAISGSTQFKFRQLNAVTNTKKDMQLIVEEAKMSGQVILLLDEIHRLDKAKQDFLLPHLENGKIVLIGATTSNPYHAINPAIRSRAQIFELYPLDQDDIRLALDRAINDKERGLSTYHPIVDEDAIEYFSTQSQGDVRSALNALELAVLSAHIGEENERHITLDDAKDCLQKGAFVSDKDGDMHYDVMSAFQKSIRGSDVNAALHYLARLIEAGDLPTIVRRLLVISYEDVGLASPNAGQRTLAAIQSAERLGFPEARIPLSQAVIELCLSPKSNSGITAIDKALGDIRNGHIGQIPDYLKDGHYSGAKKLGRAIGYKYPHNYENGHVVQQYLPEKLKNRVYYEPKTTSKSEQQFKTIYDNLRNKEGHHHHHH	not soluble
MAHHHHHHMRPSSHRRPKSSAASDVGRRIRYSDAPPWDRSIRVNGDRALSAGRASRRGPEMMKAKLQGTPARPSHCNLVTTQAATLVATVPPVNEPQVELMSQLQDVVVRLSQSAVGEKQRLAHMQQRLDAYAALMREQDRMIDELRGMNIRLQKERDALILFRQQSLNHDLHLMNNLENDGGIDEEARRAYAKYEGQNNSYGTPCNGSLGAMTPRSRGFVRSLVAQLRDERRKRLEVEEQSSRMIGEQQLTIQRLEDRLRPQVVAPRSVLVARLESPHVSSHQRASNEEKDAVNTPLQCPCVDSVSAPMSSPNFSVVNQEKRLTEVNPMAPAVPPIPLPERNKEAVITEQVHQSPAVSMDQQITPPLEVPLKIHSTSYDDAAAILFDIRKRHGL	not soluble
MKRSAINDILGHTRQFFSQHDVHLPPFASFSPAQWQQLDTAAWEEVFDLKLGWDVTAFGRNNFAAHGLTLFTLRNGSAKGMPYVKCYAEKIMHVRDAQVTPMHFHWRKREDIINRGGGNLIVELWNADSNEQTADSDITVVIDGCRQKHTAGSQLRLSPGESICLPPGLYHSFWAEAGFGDVLVGEVSSVNDDDHDNHFLQPLDRYNLIDEDEPAQLVLCNEYRQFR	soluble
MFYRDVLIESRERNIFMSKELQIRNSTVDFLVFTRDAREDGIEVRVQNGDVWLTQKAISQLFDVDRSVVTKHLSNIFKEGELDENSTCANFAQVADNGKTYNYKFYSLAAIIAVGYRINSERAMQFRTWATKVLDTFTKQGYVLDKSRLINGQIFDEDYFEHLIAEIQEIRASERRFYQKITDIYATAVDYDKNSQVTREFYATVQNKMHYAVHGNTAAEVIVARANHNKKHMGLKSWKNAPDGKIVKTDVSIAKNYLEKEELAELNEIVTMYLDYATRQARRHIPMTMEDWKTKLDAFLRFNDAEVLQDKGKVTAAIAKEFAESEFEKYRVIQDSLYESDFDKLMNDMEKNDAIH	not soluble
MGSDKIHHHHHHMAKKHRKESLDALFREKVLLEMLKIAGVGMWTYSTETGRLRYIGFADTIHRHDELQYVDPADYLKLMNGEDLQTVTQFMADIHAGRPPQEGIRYKIHGNGEDFYLENHVVTCQPLGNGFYYLKGYVKNITAQVMEANRLCIEKERTEQADRLRSAFFAHVSRELRGPLNRIEELASQMVHAESVEEREECFHRIQENRRMAMKIADALHAVSQLPVSTYEPYHSPMQLCLIYRDLLMENGYSHNPEDGEQEENANFLSLLFS	not soluble
MLFLDSQFVYGAGAQLFNHFCYFFGTQQKFPPFLSIDENQYIIFIATEQFIREIKLLIALLLNENTAKYFQKALLCLKERKLVKIAKVGNVIEFKNGLTGVVEKVNENSVIVDVTIMDNYRDLELDSLTVVNHKNYKIIRDSYLEHHHHHH	soluble
MGSDKIHHHHHHMLIIKRSVAIIAILFSPLSTASNLTSQLHNFFSAQLAGVSDEVRVSIRTAPNLLPPCEQPLLSMSNNSRLWGNVNVLARCGNDKRYLQVNVQATGNYVVAAMPIARGGKLEAGNVKLKRGRLDTLPPRTVLDINQLVDAISLRDLSPDQPIQLTQFRQAWRVKAGQRVNVIASGDGFSANAEGQALNNAAVAQNARVRMVSGQVVSGVVDADGNILINL	not soluble
MGATMKPSNKESVQDTVARLRENRNQQQSKVGKNATHSSKEQTPLDTPTRSKASKNAKAVSAAERKTEANKIIKHLLLGELTQGQALKSLRINILGLKQDVFARLVDVSRKTLSDIENDRGSYNTEILNKVFKPFSLKIGLLPSSPDALKSLLMDGEDG	soluble
MKQTFITLGEGLTDLFEFMTMIEYNHQRIDKIIYFHSPQAENKKSSVAIIMNPTTGNHFQAFYIMINAIKYPYPDSNKKFQMINDCAEKFDIPILGIDVQPPQAFHDLSLYYNYLISVLRLQKWIPELQLEHHHHHH	not soluble
MGSDKIHHHHHHMQFLKVYSVFGEEVVGCHVRIENLSVACSVVSAGGTHPSEKCVCNHEFSSVSLHQKKHPHLEKLLETSRPIKLDSSSKVLILSDLHMGNGGRRDEFRRNSELVRSMLQDYYLPGGYSLVLNGDIEELFKFSVEDITKVWGHIYDLFLQFEKNGFFWKTYGNHDSDLFEERNYPLSKHLLESIRFQYGDEVMLLFHGHQASILLWETYPLVSRAVVLFLRYVAKPIGIRNFSTAYNSRRRFAIEKSIYEFSNQAKIVSIIGHTHRPLFESLSKVDHLKYKIEELCRQYPSALPEERLAIQERIGELKAMLDACFTEGKKIGLRSGRYNNIAIPSVFNSGCAIGKRGVTALEIDGDRIRLVYWFKEKQGRRFVSDRNSEPEQLGDTGFYRIVLNEDHLDYVFSRIRLLA	not soluble
MENKVVEEKQVDKIPLMSPCKMGKFELCHRVVLAPLTRQRSYGYIPQPHAILHYSQRSTNGGLLIGEATVISETGIGYKDVPGIWTKEQVEAWKPIVDAVHAKGGIFFCQIWHVGRVSNKDFQPNGEDPISCTDRGLTPQIMSNGIDIAHFTRPRRLTTDEIPQIVNEFRVAARNAIEAGFDGVEIHGAHGYLIDQFMKDQVNDRSDKYGGSLENRCRFALEIVEAVANEIGSDRVGIRISPFAHYNEAGDTNPTALGLYMVESLNKYDLAYCHVVEPRMKTAWEKIECTESLVPMRKAYKGTFIVAGGYDREDGNRALIEDRADLVAYGRLFISNPDLPKRFELNAPLNKYNRDTFYTSDPIVGYTDYPFLETMT	soluble
MSSLHKSRIADFQDVLKEPSIALEKLRELSFSGIPCEGGLRCLCWKILLNYLPLERASWTSILAKQRELYAQFLREMIIQPGIAKANMGVSREDVTFEDHPLNPNPDSRWNTYFKDNEVLLQIDKDVRRLCPDISFFQRATDYPCLLILDPQNEFETLRKRVEQTTLKSQTVARNRSGVTNQEQNIKPQFFAFRWLTLLLSQEFLLPDVTRIWDSLFADDNRFDFLLLVCCAMLMLIREQLLEGDFTVNMRLLQDYPITDVCQILQKAKELQDSK	soluble
MTAFQSLKPSTLSREDFVKAFADIYEHSPWVAEKAYELGLDASVDQIETLHQRMSDILLSADHASQLALINAHPDLAGKAAVQGQLTEASTNEQAGAGIHQCTAEEFQRFTELNDAYKAKFKFPFIMAVKGSNRHQILAAFETRIHNSVDTEFKCALAEINKIALFRLLTLLEHHHHHH	not soluble
